Data from US20240226163A1 (Regeneron, published 2024).

What was measured:
Assay in all cases: cell-based or functional assay
[1] = target: HLA-A*02:01 presenting SHTN1 198-206 peptide (…) (human)
[2] = target: HLA-A*02:01 presenting PCDHGC3 337-345 peptide (…) (human)
[3] = target: HLA-A*02:01 presenting NBAS 2063-2071 peptide (…) (human)
[4] = target: HLA-A*02:01 presenting MAGE-A4 286-294 peptide (…) (human)
[5] = target: HLA-A*02:01 presenting SMIM11A 4-12 peptide (…) (human)
[6] = target: HLA-A*02:01 presenting HEATR5A 1925-1933 peptide (…) (human)
[7] = target: HLA-A*02:01 presenting FN1 2182-2190 peptide (…) (human)
[8] = target: HLA-A*02:01 presenting MRPL37 334-342 peptide (…) (human)
[9] = target: HLA-A*02:01 presenting AOX1 795-803 peptide (…) (human)
[10] = target: HLA-A*02:01 presenting PLEKHH2 790-798 peptide (…) (human)
[11] = target: HLA-A*02:01 presenting CARD8 170-178 peptide (…) (human)
[12] = target: HLA-A*02:01 presenting CNOT1 1965-1973 peptide (…) (human)
[13] = target: HLA-A*02:01 presenting PSME2 145-153 peptide (…) (human)
[14] = target: HLA-A*02:01 presenting RABGAP1L 408-416 peptide (…) (human)
[15] = target: HLA-A*02:01 presenting TEP1 2156-2164 peptide (…) (human)
[16] = target: HLA-A*02:01 presenting MAGE-A4 286-294 peptide (…) (human); remark: listed apart in the source
[17] = target: HLA-A*02:01 presenting MAGE-A4 286-294 peptide (…) (human); remark: listed apart in the source

B1: bsAb6054 (bispecific antibody, V domains shown)
VH 1: QVQLVESGGGLVKPGGSLRLSCAASGFTFSEYYLTWIRQAPGKGLDWIAYISSSGYNIYYADSVKDRFTISRDNGKNSLFLQMNNLRAEDTAVYFCAREGVTDGMDVWGQGTTVTVSS
VH 2: EVQLVESGGGLVQPGRSLRLSCAASGFTFADYTMHWVRQAPGKGLEWVSDISWNSGSIAYADSVKGRFTISRDNAKNSLYLQMNSLRTEDTAFYYCAKDSRGYGHYKYLGLDVWGQGTTVTVSS
VL: DIQMTQSPSSLSASVGDRVTITCRASQSIDTFLNWYQQKPGKVPKLLIYAASNLESGVPSRFSGSGSGTVFTLTISRLQPEDFATYYCQQSYSIPPITFGQGTRVEIK
EC50 (M), Jurkat/NF-κB-Luc reporter with pulsed T2 cells [1]: 1.3e-09 M | Fold change, Jurkat/NF-κB-Luc reporter with pulsed T2 cells [1]: 81.1 fold | EC50 (M), Jurkat/NF-κB-Luc reporter with pulsed T2 cells [2]: > 2e-08 M | Fold change, Jurkat/NF-κB-Luc reporter with pulsed T2 cells [2]: 1 fold | EC50 (M), Jurkat/NF-κB-Luc reporter with pulsed T2 cells [3]: > 2e-08 M | Fold change, Jurkat/NF-κB-Luc reporter with pulsed T2 cells [3]: 1.3 fold | EC50 (M), Jurkat/NF-κB-Luc reporter with pulsed T2 cells [4]: 2e-12 M | Fold change, Jurkat/NF-κB-Luc reporter with pulsed T2 cells [4]: 78.7 fold | EC50 (M), Jurkat/NF-κB-Luc reporter with pulsed T2 cells [5]: > 2e-08 M | Fold change, Jurkat/NF-κB-Luc reporter with pulsed T2 cells [5]: 1 fold | EC50 (M), Jurkat/NF-κB-Luc reporter with pulsed T2 cells [6]: > 2e-08 M | Fold change, Jurkat/NF-κB-Luc reporter with pulsed T2 cells [6]: 1.2 fold | EC50 (M), Jurkat/NF-κB-Luc reporter with pulsed T2 cells [7]: > 2e-08 M | Fold change, Jurkat/NF-κB-Luc reporter with pulsed T2 cells [7]: 1 fold | EC50 (M), Jurkat/NF-κB-Luc reporter with pulsed T2 cells [8]: > 2e-08 M | Fold change, Jurkat/NF-κB-Luc reporter with pulsed T2 cells [8]: 2.4 fold | EC50 (M), Jurkat/NF-κB-Luc reporter with pulsed T2 cells [9]: 2.1e-11 M | Fold change, Jurkat/NF-κB-Luc reporter with pulsed T2 cells [9]: 36 fold | EC50 (M), Jurkat/NF-κB-Luc reporter with pulsed T2 cells [10]: > 2e-08 M | Fold change, Jurkat/NF-κB-Luc reporter with pulsed T2 cells [10]: 2.8 fold | EC50 (M), Jurkat/NF-κB-Luc reporter with pulsed T2 cells [11]: > 2e-08 M | Fold change, Jurkat/NF-κB-Luc reporter with pulsed T2 cells [11]: 1.2 fold | EC50 (M), Jurkat/NF-κB-Luc reporter with pulsed T2 cells [12]: > 2e-08 M | Fold change, Jurkat/NF-κB-Luc reporter with pulsed T2 cells [12]: 1 fold | EC50 (M), Jurkat/NF-κB-Luc reporter with pulsed T2 cells [13]: > 2e-08 M | Fold change, Jurkat/NF-κB-Luc reporter with pulsed T2 cells [13]: 1 fold | EC50 (M), Jurkat/NF-κB-Luc reporter with pulsed T2 cells [14]: > 2e-08 M | Fold change, Jurkat/NF-κB-Luc reporter with pulsed T2 cells [14]: 1 fold | EC50 (M), Jurkat/NF-κB-Luc reporter with pulsed T2 cells [15]: > 2e-08 M | Fold change, Jurkat/NF-κB-Luc reporter with pulsed T2 cells [15]: 1.2 fold | EC50, NF-κB luciferase, Jurkat/NF-κB Luc + IM-9 [16]: 0.74 nM | EC50, NF-κB luciferase, Jurkat/NF-κB Luc + U266 [16]: 3.1 nM | Fold Activation, NF-κB luciferase, Jurkat/NF-κB Luc + IM-9 [16]: 41.9 fold | Fold Activation, NF-κB luciferase, Jurkat/NF-κB Luc + U266 [16]: 6.3 fold | EC50, NF-κB luciferase, Jurkat + IM-9, with 2 nM mAb5705 (anti-CD28) [17]: 2.1 nM | EC50, NF-κB luciferase, Jurkat + U266, with 2 nM mAb5705 (anti-CD28) [17]: 6.1 nM | Fold Activation, NF-κB luciferase, Jurkat + IM-9, with 2 nM mAb5705 (anti-CD28) [17]: 28.7 fold | Fold Activation, NF-κB luciferase, Jurkat + U266, with 2 nM mAb5705 (anti-CD28) [17]: 8.6 fold
